# Test results reported in patent US20230203172A1 (SHANGHAI MABGEEK BIOTECH, published 2023).
# Substitutions are numbered along the chain they refer to.
# B1: humanized anti-hIL-4R alpha monoclonal antibody 59-Hu (antibody, human IgG4 S228P, kappa, V domains shown)
# VH: EVQLVESGGGLVQPGGSLRLSCAASGFTFSDYGIHWVRQAPGKGLEWVSYIRSDSSIIHYADTVKGRFTISRDNAKNSLYLQMNSLRAEDTAVYYCARGRDRGYFDYWGQGTLVTVSS
# VL: EIVLTQSPATLSLSPGERATLSCSASSSVSYMYWYQQKPGQAPRPWIYLTSNLASGVPARFSGSGSGTDFTLTISSLEPEDFAVYYCQQWTSIPFTFGQGTKVEIKR
# notes: Humanized, human IgG4 constant region; expressed in HEK293, purified on ProteinA
# B2: humanized anti-hIL-4R alpha monoclonal antibody 236-Hu (antibody, human IgG4 S228P, kappa, V domains shown)
# VH: QVQLVQSGAEVKKPGASVKVSCKASGYTFTDYNVDWVRQAPGQGLEWIGTINPNNGGILSNQKFKGRVTITVDTSASTAYMELSSLRSEDTAVYYCGRGGLRRRGFMDYWGQGTLVTVSS
# VL: B1 VL with S24R, S30I, M32I, Y33H, L49A, T50A, A54P, T91S, I93N, F95P
# notes: as for B1
# B3: humanized anti-hIL-4R alpha monoclonal antibody 131-Hu (antibody, human IgG4 S228P, kappa, V domains shown)
# VH: EVQLVESGGGLVQPGGSLRLSCAASGFTFSDYGMHWVRQAPGKGLEWVSYISSGSSTIYYADTVKGRFTISRDNAKNSLYLQMNSLRAEDTAVYYCARISTVVAKRYAMDYWGQGTLVTVSS
# VL: DIQMTQSPSSLSASVGDRVTITCRASQDISNYLNWYQQKPGKAPKLLIYYTSRLHSGVPSRFSGSGSGTDFTLTISSLQPEDIATYYCQEVNMLPFTFGQGTKVEIKR
# notes: as for B1
# B4: humanized anti-hIL-4R alpha monoclonal antibody 136-Hu (antibody, human IgG4 S228P, kappa, V domains shown)
# VH: B3 VH with S56T
# VL: B3 VL with E90Q, V91I, M93A, V104L
# notes: as for B1
# Target: human IL-4R alpha on cells (TF-1 cells; human peripheral blood mononuclear cells) (human, UniProt P24394 26-825)
# Assay: cell-based or functional assay
row,"IC50 (ng/ml), inhibition of IL-4-induced TF-1 cell proliferation [ng/mL]",Binder
1,296,B1
2,54.6,B2
3,90.6,B3
4,84.3,B4

# Target: T1, hIL-4R alpha-ECD-Flag (human, UniProt P24394 26-232)
# T1 construct: range 26-232; Analyte of the Biacore experiment
# Assay: SPR, Biacore T200, antibody captured on Protein-A chip, hIL-4R alpha-ECD-Flag as analyte
# Experimental: The affinity of six purified humanized antibodies was detected by Biacore T200 (GE healthcare), with the reference antibody Dupilumab as a control. The specific experimental method was as follows: a Protein-A CMS sensor chip (GE healthcare) was used, with FC1 (Flow cell 1) as a reference channel, and FC2 (Flow cell 2) as a sample channel. Humanized antibodies or control antibody were captured in the FC2 channel, and then hIL-4R alpha-ECD-Flag at different concentrations was injected. Cycling conditions were as follows: an analyte was injected into all channels of FCs at 50 μl/min for 4 min, with a dissociation time of 20 min, and 6M guanidine hydrochloride (Sinopharm Chemical Reagent Co., Ltd.) was injected at a rate of 10 μl/min for 30 s for surface regeneration. Then, signal differences and affinity for interaction between captured antibodies and non-captured antibodies were calculated by Biacore T200 Evaluation Software Ver 1.0.
Kd [nM],koff [s⁻¹],kon [M⁻¹ s⁻¹],Binder
0.25,0.000284,1.14e+06,B1
0.173,0.000255,1.48e+06,B2
0.33,0.000111,335000,B3
0.154,9.8e-05,635000,B4
